In general, Km refers to the concentration of substrate that gives half-maximal velocity. The kcat is the number of substrate molecules converted per active site and unit of time at saturation.

Substrate in data set [1]: CCCC(=O)SCCNC(=O)CCNC(=O)[C@H](O)C(C)(C)COP(=O)(O)OP(=O)(O)OC[C@H]1O[C@@H](n2cnc3c(N)ncnc32)[C@H](O)[C@@H]1OP(=O)(O)O
As to the kind of experiment: acetyl-CoA formation, citrate synthase/DTNB A412, secondary plots. The class given is biochemical, Porphyromonas gingivalis. Particulars: co-substrate sodium acetate, 40 mM potassium phosphate pH 8.0, ternary-complex mechanism. From the text: (§1) acetyl-CoA formation, citrate synthase/DTNB A412, secondary plots on PGN_1888

Substrate in data set [2]: CCC(=O)SCCNC(=O)CCNC(=O)[C@H](O)C(C)(C)COP(=O)(O)OP(=O)(O)OC[C@H]1O[C@@H](n2cnc3c(N)ncnc32)[C@H](O)[C@@H]1OP(=O)(O)O
The data set is described as above. The following applies: co-substrate sodium acetate, 40 mM potassium phosphate pH 8.0, ternary-complex mechanism. It is filed as biochemical, Porphyromonas gingivalis.
Description: as §1

Substrate in the data set “purified protein”: CC(=O)O
As to the kind of experiment: purified protein. The following applies: co-substrate butyryl-CoA, 40 mM potassium phosphate pH 8.0, ternary-complex mechanism.

Substrate in data set [3]: CCCC(=O)SCCNC(=O)CCNC(=O)[C@H](O)C(C)(C)COP(=O)(O)OP(=O)(O)OC[C@H]1O[C@@H](n2cnc3c(N)ncnc32)[C@H](O)[C@@H]1OP(=O)(O)O
Briefly: acetyl-CoA formation, citrate synthase/DTNB A412, secondary plots. It is filed as biochemical, Porphyromonas gingivalis. Particulars: co-substrate sodium acetate, 40 mM potassium phosphate pH 8.0, ternary-complex mechanism. The text has this: (§2) acetyl-CoA formation, citrate synthase/DTNB A412, secondary plots on PGN_0725
The source holds these as a separate data set.

Substrate in data set [4]: CCC(=O)SCCNC(=O)CCNC(=O)[C@H](O)C(C)(C)COP(=O)(O)OP(=O)(O)OC[C@H]1O[C@@H](n2cnc3c(N)ncnc32)[C@H](O)[C@@H]1OP(=O)(O)O
The data set is described as above. The class given is biochemical, Porphyromonas gingivalis. Particulars: co-substrate sodium acetate, 40 mM potassium phosphate pH 8.0, ternary-complex mechanism.
Description: as §2
This is another data set of the same source.

Substrate in data set [5]: CCCC(=O)SCCNC(=O)CCNC(=O)[C@H](O)C(C)(C)COP(=O)(O)OP(=O)(O)OC[C@H]1O[C@@H](n2cnc3c(N)ncnc32)[C@H](O)[C@@H]1OP(=O)(O)O
Described as above. The class given is biochemical, Porphyromonas gingivalis. The following applies: co-substrate sodium acetate, 40 mM potassium phosphate pH 8.0, ternary-complex mechanism. The text has this:
acetyl-CoA formation, citrate synthase/DTNB A412, secondary plots on PGN_1341
This is another data set of the same source.

B1: PGN_1888 (Porphyromonas gingivalis ATCC 33277) (protein)
chain: MQWQELYRQRVCSADEAVVDSLKPGTKVVFGHAAAAPVRFSQAMYRQRERLENITVFHMLYFGDAPHLAPEMRSHVHPTLNFLEGNSRPASRDRRVDFIPCHFHEVPELFRQGFFPLDVAVVQVSTPNEEGYCSFGVSCDYTKAAAECAPVVVAEVNKQMPFIGGENLIHISNLTHIIEVDEPIAEVLPPAISDLELRIGQNCASLIKDGDTLQLGIGGIPDAVLRALEGHKDLGIHTEMFTDGVMRMIRKGIINGKKKTLHPEKVVTSLIFGSKELYDFVNNNPVIECYPVDYINNPDVIGKNDRMVSINSCLEMDLMGQAASESIGYEQFSGSGGQVDFLRGAKRSKGGISIMAFPSTAKKGTESRIVPILKEGACVTTGRNEVDYVVTEYGVARLRGATLRQRAEALTAIAHPDFRPALEEEIRRRFE
notes: recombinant full-length, pGEX-6P-1 (GST vector) in E. coli; 431 aa
With B1, the Km is 920 ± 70 µM in data set [1], 23 ± 4.4 µM in data set [2] and 33000 ± 5300 µM in “purified protein”. Moreover, the turnover number (kcat) in data set [1] is 254 ± 10 s⁻¹; in data set [2], 1374 ± 477 s⁻¹; in “purified protein”, 254 ± 10 s⁻¹.

B2: PGN_0725 (Porphyromonas gingivalis ATCC 33277) (protein)
chain: MKDVLAEYASRIVSAEEAVKHIKNGERVALSHAAGVPQSCVDALVQQADLFQNVEIYHMLCLGEGKYMAPEMAPHFRHITNFVGGNSRKAVEENRADFIPVFFYEVPSMIRKDILHIDVAIVQLSMPDENGYCSFGVSCDYSKPAAESAHLVIGEINRQMPYVHGDNLIHISKLDYIVMADYPIYSLAKPKIGEVEEAIGRNCAELIEDGATLQLGIGAIPDAALLFLKDKKDLGIHTEMFSDGVVELVRSGVITGKKKTLHPGKMVATFLMGSEDVYHFIDKNPDVELYPVDYVNDPRVIAQNDNMVSINSCIEIDLMGQVVSECIGSKQFSGTGGQVDYVRGASWSKNGKSIMAIPSTAKNGTASRIVPIIAEGAAVTTLRNEVDYVVTEYGIAQLKGKSLRQRAEALIAIAHPDFREELTEHLRKRFG
notes: as for B1
As to B2, the Km in data set [3] worked out at 520 ± 10 µM; in data set [4] it was 108 ± 47 µM; in the data set “purified protein” it was 16000 ± 1800 µM. Also, the kcat in data set [3] was found to be 560 ± 4.1 s⁻¹; in data set [4], 533 ± 31 s⁻¹; in the data set “purified protein”, 560 ± 4.1 s⁻¹.

B3: PGN_1341 (Porphyromonas gingivalis ATCC 33277) (protein)
chain: MALRFITAEEAAEFVHHNDNVGFSGFTPAGNPKVVPAAIAKRAIAEHEKGNPFKIGMFTGASTGARLDGVLAQADAVKFRTPYQSNKDLRNLINNGSTSYFDLHLSTLAQDLRYGFYGKVDVAIIEVADVTEDGKILPTTGVGILPTICRLADRIIVELNDKHPKEIMGMHDLCEPLDPPARRELPVYTPSDRIGKPYVQVDPAKIVGVVRTSEPNDESDFAPLDPVTQAIGDNVAAFLVSEMKAGRIPKDFLPLQSGVGNVANAVLGALGDNPDIPAFNMYTEVIQDAVIALMKKGRIKFASGCSLSVSRSVIQDIYANLDFFKDKILLRPQEYSNNPEIVRRLGVITINTALEADIFGNINSTHVSGTRMMNGIGGSGDFTRNSYVSIFTTPSVMKDGKISSFVPMVAHHDHSEHSVKVIISEWGVADLRGKNPRERAHEIIDKCVHPDYRPLLRQYLELGVKGQTPQNLDCCFAFHQELAKSGDMRNVRWEDYMK
notes: recombinant full-length, pGEX-6P-1 (GST vector) in E. coli; 498 aa
As for B3, the Km worked out at 610 ± 40 µM in data set [5] and 26000 ± 2800 µM in “purified protein”. In addition, the kcat (in data set [5]; in the data set “purified protein”) was 24 ± 0.3 s⁻¹ throughout.

(Values after publication PMC4949257, “Three CoA Transferases Involved in the Production of Short Chain Fatty Acids in Porphyromonas gingivalis” (Frontiers in Microbiology, 2016).)
